The data set relates to human adenocarcinoma tumor. Also on record: species or system NIH nu/nu nude mice. The following applies: mouse, in vivo, iv. The text has this:
Tc-99m labeled peptide (SEQ ID NO: 10) was used to image tumors induced subcutaneously in the abdomen of NIH nu/nu nude mice. Following intravenous administration in human adenocarcinoma tumor bearing nude mice, images were taken at different time intervals post […], using a conventional gamma camera. […] The results are shown in FIG. 1 which clearly depicts that the accumulation of Tc-99m labeled VIP analog is high in tumor (indicated with arrow) as compared to the accumulation in viscera (unmarked dots) after 3 hours of injection.

SMILES strings stand for the structures. Square brackets hold non-standard residues; d marks the D form. Peptide text beside a SMILES is read from it. * marks the point of attachment. DTPA = O=C(O)CN(CCN(CC(=O)O)CC(=O)O)CCN(CC(=O)O)CC(=O)*; dPhe(4-Cl) = N[C@H](Cc1ccc(Cl)cc1)C(=O)O; Aib = CC(C)(N)C(=O)O; Ahx = NCCCCCC(=O)O

Turning to `CC[C@H](C)[C@H](NC(=O)[C@H](CO)NC(=O)[C@H](CC(N)=O)NC(=O)[C@H](CC(C)C)NC(=O)[C@H](Cc1ccc(O)cc1)NC(=O)[C@H](CCCCN)NC(=O)[C@H](CCCCN)NC(=O)[C@@H](NC(=O)[C@H](C)NC(=O)[C@H](CC(C)C)NC(=O)[C@H](CCC(N)=O)NC(=O)[C@H](CCCCN)NC(=O)[C@H](CCCNC(=N)N)NC(=O)[C@H](CC(C)C)NC(=O)[C@H](CCCNC(=N)N)NC(=O)[C@@H](NC(=O)[C@H](Cc1ccc(O)cc1)NC(=O)[C@H](CC(N)=O)NC(=O)[C@H](CC(=O)O)NC(=O)[C@@H](NC(=O)[C@@H](Cc1ccc(Cl)cc1)NC(=O)[C@@H](NC(=O)C(C)(C)NC(=O)[C@H](CC(=O)O)NC(=O)[C@H](CO)NC(=O)[C@H](Cc1c[nH]cn1)NC(=O)CCCCCNC(=O)CN(CCN(CCN(CC(=O)O)CC(=O)O)CC(=O)O)CC(=O)O)C(C)C)[C@@H](C)O)[C@@H](C)O)C(C)C)C(=O)N[C@@H](CC(C)C)C(=O)N[C@@H](CC(N)=O)C(N)=O` [Tc-99m labeled peptide (SEQ ID NO: 10), metal not drawn] ({DTPA-Ahx}-HSD[Aib]V[dPhe(4-Cl)]TDNYTRLRKQLAVKKYLNSILN-NH2), the “accumulation in liver and kidney” value was “little accumulation in liver and kidney”; the blood clearance entry is “rapid blood clearance”.

The values are drawn from US6608174B1, “Radiolabeled vasoactive intestinal peptide analogs for diagnosis and radiotherapy” (Dabur Research Foundation, priority 2000, dated 2003).
